Assay results published in the supplement of paper PMC10567573.

B1: SOAT1 (parent)
chain: GVLILFLTFFAFLHCWLNAFAEML
B2: TIA1 (parent)
chain: TYECRCIGEEKEMWNFGEKYARF

Variants of: B1
Assay: protein stability index of a GFP-peptide fusion (GPS, HEK-293T) (PSI 1-6); higher = more stable
Details: c terminus: a fixed tail appended
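Note: lentivirally expressed fusions sorted by FACS into six bins by GFP to DsRed ratio, PSI derived from sequencing read proportions per bin multiplied by bin number.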

Protein stability index, by site and new letter:
L3: T 3.86; D 2.13; E 2.74; K 1.94; Y 2.94; R 2.98; F 2.69; G 2.85; W 3.13; A 2.52; P 3.1; V 3.82; H 2.34; M 3.1; C 3.65; S 3.06
L5: H 3.32; D 4.32; N 3.7; W 2.17; I 2.23; G 2.13; R 2.57; E 3.38; A 2.42; K 2.87; T 2.34; Q 3.75; M 1.72; V 1.91; C 2.84
I4: H 1.85; D 1.73; T 3.27; N 3.78; Q 4.98; E 2.23; M 3.03; G 4.32; F 1.75; P 2.26; R 3.74; V 2.92; L 2.76; Y 3.33; S 2.66; C 2.42; A 2.03; K 1.43; W 2.43
G1: Q 2.35; Y 2.49; A 3.39; W 1.61; N 3.26; V 3.18; K 2.23; M 2.94; I 3.7; C 2.93; R 4.47; S 4.28; E 3.49; F 2.2; H 3.67; P 3.53; T 3.35
V2: W 2.95; E 2.17; A 2.01; Y 2.31; F 2.32; C 2.05; T 2.72; D 2.14; K 2.31; Q 2.56; H 2.35; L 1.03; P 1.74; N 1.42; I 2.62; S 1.98; M 2.26; R 3.5

Variants of: B2
Assay: as above
Details: c terminus: native

Protein stability index: each site, then its substitutions
G17: I 1.16; W 2.2; F 1.81; V 2.03; R 2.1; L 2.35; Q 2.1; H 2; E 2.16; K 1.98; P 2.15
E3: P 2.47; D 3.24; T 3.76; L 2.42; Q 2.61; K 1.66; R 1; N 1.98; C 3.65; M 2.49
F23: Y 2.18; G 2.11; P 2.69; M 2.54; A 3.29; K 3.29; R 1.52; Q 1.48; S 2.2; E 3.42; C 1.61; H 1.83; N 1.87
A21: T 1.44; E 3.16; W 2.42; D 3.1; S 1.97; I 2.72; G 2.11; C 1.89; M 1.99; H 3.06
C6: Q 3.9; H 3.75; T 3.1; L 1.56; I 2.89; S 3.8; Y 2.14; M 1.84; F 3.08; P 3.72
T1: S 2.51; Y 1.63; V 1.8; L 1.7; Q 2.35; I 2.19; E 4.38; D 3.71; A 2.54; P 3.63; N 3.21; G 2.27
E12: F 3.56; K 1.4; Y 1.3; G 2.71; W 2.5; C 2.08; V 1.59; R 1.42; N 2.08; S 2.21
K19: T 2.06; M 1.29; Y 4.2; F 2.16; L 1.59; Q 2.41; V 1.76; C 1.85; E 3.18
E18: S 1.97; M 1.81; K 2.49; W 3.12; P 1.65; Q 1.8; D 2.22
F16: P 1.91; T 3; V 2.45; W 1.77; L 1.74; M 3; D 2.78; A 2.43; C 2.42; N 1.85; Y 2.2; S 2.66; G 2.29
G8: Y 2.37; N 2.28; F 2.01; K 2.18; P 2.14; S 1.98; T 2.47; A 2.54; H 1.46; D 1.58
K11: N 2.69; W 1.83; R 1.57; Y 2.17; P 2.02; D 2.38; L 1.5; T 3.28; S 1.98; E 2.54; I 1.3; C 3.31; Q 1.84; A 3.42
Y20: I 1.7; P 1.11; F 2.86; E 3.6; A 2.58; H 3.71; G 3.89; Q 4; M 3.19; W 2.31
E10: W 2.52; V 1.58; Q 1.71; D 1.99; S 2.23; I 2.56; C 2.25
E9: V 1.92; Q 2.46; R 1.88; A 1.85; I 1.89; M 1.33; K 2.49; N 2.29; H 1.74; S 1.84; Y 1.85; T 1.61; G 2.09; C 2.1
I7: L 1.98; N 2.66; Y 2.3; H 3.01; P 3.87; T 2.98; F 2.12; S 2.16; R 1.8; D 2.87
C4: P 3.81; A 3.13; M 2.62; F 2.28; W 1.91; Q 1.67; T 2.31; Y 1.93; R 2.31; H 3.33; E 2.2; L 2.85; S 2.01; N 2.31
R22: E 3.2; M 1.51; L 1.01; N 3.1; D 3.77; K 3.59; W 1.6; A 1.79; C 1.36; V 2.84; G 2.63
M13: N 2.31; K 1.87; G 2.61; V 2.03; A 1.74; C 2.14; S 1.98; P 2.19; L 2.48; R 2.11
W14: I 2.28; V 2.34; C 2.17; M 2.27; Q 2.24; P 2.31; Y 2.65; K 1.6; E 2.51; A 2.14; G 2.88; F 2.39; S 2.98
R5: E 2.02; H 2.62; C 1.97; G 2.93; V 2.46; N 2.86; S 2.54; P 3.48; A 1.66; L 2.29
N15: S 2.13; F 2.46; T 1.92; G 2; W 2.77; H 2.33; Q 1.42; I 2.02; L 2.37
Y2: S 3.2; N 3.75; E 4.79; R 3.07; K 3.51; P 3.99; V 3.16; A 2.94; L 3.66; Q 3.97; F 4.21; M 2.88
